Test results as given in patent US20170128544A1.

Target: Bb, the active site-bearing fragment of Factor B (human) (UniProt P00751)
Test: surface plasmon resonance, decay-dissociation of the convertase

Chain of Bb, the active site-bearing fragment of Factor B (human) (P00751 260-764 limits assumed): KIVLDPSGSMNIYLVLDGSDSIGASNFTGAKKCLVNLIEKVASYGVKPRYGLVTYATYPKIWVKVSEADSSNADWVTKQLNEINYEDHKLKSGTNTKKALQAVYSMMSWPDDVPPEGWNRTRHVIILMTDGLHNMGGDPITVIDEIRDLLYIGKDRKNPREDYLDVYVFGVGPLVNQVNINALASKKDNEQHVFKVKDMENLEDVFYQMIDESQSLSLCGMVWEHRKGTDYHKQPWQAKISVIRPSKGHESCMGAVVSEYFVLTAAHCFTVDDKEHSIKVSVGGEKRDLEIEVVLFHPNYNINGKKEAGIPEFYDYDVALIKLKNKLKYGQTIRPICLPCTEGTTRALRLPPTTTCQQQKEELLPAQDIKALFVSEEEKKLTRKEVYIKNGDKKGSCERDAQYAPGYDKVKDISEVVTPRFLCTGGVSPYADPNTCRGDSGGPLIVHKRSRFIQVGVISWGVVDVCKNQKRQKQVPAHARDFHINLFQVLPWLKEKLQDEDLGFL

Substance	Half-life at 25° C. (hrs) of the spontaneous decay-dissociation [h]
cobra venom factor (CVF), natural (from UniProt Q91132 23-649; Q91132 733-984; Q91132 1264-1642)	19.2
humanized cobra venom factor (hCVF) protein HC3-1550b (from UniProt P01024 23-1549; Q91132 1529-1642)	2
